The supplement of paper PMC7125110
± gives the standard error. For some assays here: This sample holds only a part of the variants without activity.

B1: glmS ribozyme (parent)
chain: AUAAAAGCGCCAGAACUACAGAAAUGUAGUUGACGAGGAGGAGGUUUAUCGAAUUUUCGGCGGAUGCCUCCAAA

What was measured:
Conditions in all cases: with glucosamine-6-phosphate
glucosamine-6-phosphate [1] = variants of: B1; assay: kcat; higher = faster cleavage; RNA array
In short: (§1)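 E. coli RNA polymerase transcribed barcoded ribozyme variants in situ on sequenced MiSeq chips, which were tracked via a hybridised Cy3 probe at 37 °C. Tiles were imaged over ~14 h after glucosamine-6-phosphate (40 μM to 10 mM) in HEPES/KCl/Mg(OAc)2 buffer was flowed in. Normalised per-tile medians were fit to one- or two-exponential decays for kobs, and kcat and KM came from weighted Michaelis–Menten fits.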

glucosamine-6-phosphate [2] = variants of: B1; assay: self-cleavage kobs at 40 uM GlcN6P; higher = faster cleavage; RNA array
In short: as §1

glucosamine-6-phosphate [3] = variants of: B1; assay: self-cleavage kobs at 160 uM GlcN6P; higher = faster cleavage; RNA array
In short: as §1

glucosamine-6-phosphate [4] = variants of: B1; assay: self-cleavage kobs at 640 uM GlcN6P; higher = faster cleavage; RNA array
In short: as §1

glucosamine-6-phosphate [5] = variants of: B1; assay: self-cleavage kobs at 2500 uM GlcN6P; higher = faster cleavage; RNA array
In short: as §1

glucosamine-6-phosphate [6] = variants of: B1; assay: self-cleavage kobs at 10000 uM GlcN6P; higher = faster cleavage; RNA array
In short: as §1

glucosamine-6-phosphate [7] = variants of: B1; assay: KM; higher = weaker cofactor use; RNA array
In short: as §1

Variant: G43C U45G
- kcat (glucosamine-6-phosphate [1]): 0.00237 ± 0.00082 s⁻¹
- self-cleavage kobs at 40 uM GlcN6P (glucosamine-6-phosphate [2]): 8.35e-05 ± 1.2e-05 s⁻¹
- self-cleavage kobs at 160 uM GlcN6P (glucosamine-6-phosphate [3]): 0.000135 ± 2.3e-05 s⁻¹
- self-cleavage kobs at 640 uM GlcN6P (glucosamine-6-phosphate [4]): 0.000694 ± 0.00012 s⁻¹
- self-cleavage kobs at 2500 uM GlcN6P (glucosamine-6-phosphate [5]): 0.00109 ± 0.00024 s⁻¹
- self-cleavage kobs at 10000 uM GlcN6P (glucosamine-6-phosphate [6]): 0.00211 ± 0.00027 s⁻¹

Variant: A42G G66A U69A
- kcat (glucosamine-6-phosphate [1]): 0.0145 ± 0.0037 s⁻¹
- KM (glucosamine-6-phosphate [7]): 1590 ± 490 µM
- self-cleavage kobs at 40 uM GlcN6P (glucosamine-6-phosphate [2]): 0.000356 ± 0.0001 s⁻¹
- self-cleavage kobs at 10000 uM GlcN6P (glucosamine-6-phosphate [6]): 0.0125 ± 0.0052 s⁻¹

Variant: A42U U65G C68A
- kcat (glucosamine-6-phosphate [1]): 2.17e-05 ± 1.1e-05 s⁻¹
- self-cleavage kobs at 160 uM GlcN6P (glucosamine-6-phosphate [3]): < 1e-05 s⁻¹

Variant: A42C C70U
- kcat (glucosamine-6-phosphate [1]): 1.24e-05 ± 3.3e-06 s⁻¹

Variant: A42C C70G
- kcat (glucosamine-6-phosphate [1]): 4.99e-05 ± 4.3e-06 s⁻¹
- KM (glucosamine-6-phosphate [7]): 1410 ± 550 µM
- self-cleavage kobs at 2500 uM GlcN6P (glucosamine-6-phosphate [5]): 3.37e-05 ± 7.9e-06 s⁻¹
- self-cleavage kobs at 10000 uM GlcN6P (glucosamine-6-phosphate [6]): 4.32e-05 ± 6.7e-06 s⁻¹

Variant: A42C C67A
- kcat (glucosamine-6-phosphate [1]): 0.000122 ± 1.6e-05 s⁻¹
- KM (glucosamine-6-phosphate [7]): 1160 ± 560 µM
- self-cleavage kobs at 640 uM GlcN6P (glucosamine-6-phosphate [4]): 5.06e-05 ± 1.6e-05 s⁻¹
- self-cleavage kobs at 2500 uM GlcN6P (glucosamine-6-phosphate [5]): 5.66e-05 ± 2.8e-05 s⁻¹
- self-cleavage kobs at 10000 uM GlcN6P (glucosamine-6-phosphate [6]): 0.000114 ± 1.7e-05 s⁻¹

Variant: A42G U54A
- kcat (glucosamine-6-phosphate [1]): 0.0214 ± 0.0099 s⁻¹
- self-cleavage kobs at 40 uM GlcN6P (glucosamine-6-phosphate [2]): 0.000967 ± 0.00013 s⁻¹
- self-cleavage kobs at 160 uM GlcN6P (glucosamine-6-phosphate [3]): 0.00396 ± 0.0011 s⁻¹
- self-cleavage kobs at 640 uM GlcN6P (glucosamine-6-phosphate [4]): 0.029 ± 0.0057 s⁻¹
- self-cleavage kobs at 10000 uM GlcN6P (glucosamine-6-phosphate [6]): 0.0172 ± 0.004 s⁻¹

Variant: A42G U54G
- kcat (glucosamine-6-phosphate [1]): 0.0467 ± 0.012 s⁻¹
- KM (glucosamine-6-phosphate [7]): 2110 ± 650 µM
- self-cleavage kobs at 40 uM GlcN6P (glucosamine-6-phosphate [2]): 0.00111 ± 0.00022 s⁻¹
- self-cleavage kobs at 160 uM GlcN6P (glucosamine-6-phosphate [3]): 0.00287 ± 0.00056 s⁻¹
- self-cleavage kobs at 640 uM GlcN6P (glucosamine-6-phosphate [4]): 0.0108 ± 0.0031 s⁻¹
- self-cleavage kobs at 2500 uM GlcN6P (glucosamine-6-phosphate [5]): 0.0229 ± 0.0093 s⁻¹
- self-cleavage kobs at 10000 uM GlcN6P (glucosamine-6-phosphate [6]): 0.0409 ± 0.011 s⁻¹

Variant: G43U A52G
- kcat (glucosamine-6-phosphate [1]): < 1e-05 s⁻¹
- KM (glucosamine-6-phosphate [7]): 5960 ± 590 µM
- self-cleavage kobs at 40 uM GlcN6P (glucosamine-6-phosphate [2]): < 1e-05 s⁻¹
- self-cleavage kobs at 160 uM GlcN6P (glucosamine-6-phosphate [3]): < 1e-05 s⁻¹
- self-cleavage kobs at 640 uM GlcN6P (glucosamine-6-phosphate [4]): < 1e-05 s⁻¹

Variant: A42G U69C
- kcat (glucosamine-6-phosphate [1]): 0.0183 ± 0.0052 s⁻¹
- KM (glucosamine-6-phosphate [7]): 599 ± 250 µM
- self-cleavage kobs at 40 uM GlcN6P (glucosamine-6-phosphate [2]): 0.00116 ± 0.00032 s⁻¹
- self-cleavage kobs at 160 uM GlcN6P (glucosamine-6-phosphate [3]): 0.00336 ± 0.0014 s⁻¹
- self-cleavage kobs at 640 uM GlcN6P (glucosamine-6-phosphate [4]): 0.0132 ± 0.0044 s⁻¹
- self-cleavage kobs at 2500 uM GlcN6P (glucosamine-6-phosphate [5]): 0.0132 ± 0.0041 s⁻¹

Variant: G43C C68A
- kcat (glucosamine-6-phosphate [1]): 1.06e-05 ± 2.2e-06 s⁻¹
- self-cleavage kobs at 40 uM GlcN6P (glucosamine-6-phosphate [2]): < 1e-05 s⁻¹

Variant: G41C A53G
- kcat (glucosamine-6-phosphate [1]): 0.000359 ± 9.5e-05 s⁻¹
- self-cleavage kobs at 160 uM GlcN6P (glucosamine-6-phosphate [3]): 5.35e-05 ± 1.4e-05 s⁻¹
- self-cleavage kobs at 640 uM GlcN6P (glucosamine-6-phosphate [4]): 0.000157 ± 3.2e-05 s⁻¹
- self-cleavage kobs at 2500 uM GlcN6P (glucosamine-6-phosphate [5]): 0.000193 ± 4.2e-05 s⁻¹
- self-cleavage kobs at 10000 uM GlcN6P (glucosamine-6-phosphate [6]): 0.000438 ± 7.1e-05 s⁻¹

Variant: G41A U47A
- kcat (glucosamine-6-phosphate [1]): 0.000635 ± 9.4e-05 s⁻¹
- KM (glucosamine-6-phosphate [7]): 282 ± 86 µM
- self-cleavage kobs at 40 uM GlcN6P (glucosamine-6-phosphate [2]): 7.36e-05 ± 1.6e-05 s⁻¹
- self-cleavage kobs at 640 uM GlcN6P (glucosamine-6-phosphate [4]): 0.000573 ± 0.00011 s⁻¹
- self-cleavage kobs at 2500 uM GlcN6P (glucosamine-6-phosphate [5]): 0.000608 ± 0.00018 s⁻¹
- self-cleavage kobs at 10000 uM GlcN6P (glucosamine-6-phosphate [6]): 0.00055 ± 0.0001 s⁻¹

Variant: G41A U47C
- kcat (glucosamine-6-phosphate [1]): 7.04e-05 ± 3.2e-07 s⁻¹
- KM (glucosamine-6-phosphate [7]): 1800 ± 30 µM
- self-cleavage kobs at 2500 uM GlcN6P (glucosamine-6-phosphate [5]): 4.08e-05 ± 1e-05 s⁻¹
- self-cleavage kobs at 10000 uM GlcN6P (glucosamine-6-phosphate [6]): 5.98e-05 ± 8.4e-06 s⁻¹

Variant: A42U A53G
- kcat (glucosamine-6-phosphate [1]): 0.000266 ± 4.7e-05 s⁻¹
- KM (glucosamine-6-phosphate [7]): 2160 ± 870 µM
- self-cleavage kobs at 640 uM GlcN6P (glucosamine-6-phosphate [4]): 4.83e-05 ± 1.2e-05 s⁻¹
- self-cleavage kobs at 2500 uM GlcN6P (glucosamine-6-phosphate [5]): 0.000175 ± 2.1e-05 s⁻¹
- self-cleavage kobs at 10000 uM GlcN6P (glucosamine-6-phosphate [6]): 0.000206 ± 2.4e-05 s⁻¹

Variant: A42U A53C
- kcat (glucosamine-6-phosphate [1]): 0.000148 ± 2.3e-05 s⁻¹
- KM (glucosamine-6-phosphate [7]): 3050 ± 1500 µM
- self-cleavage kobs at 2500 uM GlcN6P (glucosamine-6-phosphate [5]): 7.29e-05 ± 2e-05 s⁻¹
- self-cleavage kobs at 10000 uM GlcN6P (glucosamine-6-phosphate [6]): 0.000113 ± 1.6e-05 s⁻¹

Variant: A42U A53U
- kcat (glucosamine-6-phosphate [1]): 0.000105 ± 1.1e-05 s⁻¹
- self-cleavage kobs at 2500 uM GlcN6P (glucosamine-6-phosphate [5]): 8.5e-05 ± 1.5e-05 s⁻¹
- self-cleavage kobs at 10000 uM GlcN6P (glucosamine-6-phosphate [6]): 9.14e-05 ± 8.2e-06 s⁻¹
